What was measured:
[1] = tested on: (HiLyteFluor-488)-DELSSMVLELRGLRT-K(QXL520)-E-NH2
[2] = tested on: COMP1 candidate peptide, (Donor) GMQQSVRTGLPS (K-Quencher)
[3] = tested on: COMP2 candidate peptide, (Donor) SPGFRC(Acm)EAC(Acm)PPGYS (K-Quencher)
[4] = tested on: TSP1-1 substrate, (HiLyteFluor-488)-DELSSMVLELRGLRT-K(QXL520)-NH2
[5] = tested on: TSP1-2 substrate, (HiLyteFluor-488)-SSMVLELRGLRTIVT-K(QXL520)-NH2
[6] = tested on: TSP1-3 substrate, (HiLyteFluor-488)-KVTEENKELANELRR-K(QXL520)-NH2
[7] = tested on: TSP1-4 substrate, (HiLyteFluor-488)-EENKELANELRRPPL-K(QXL520)-NH2
[8] = tested on: TSP1-5 substrate, (HiLyteFluor-488)-SSMVLELRGLRT-K(QXL520)-NH2

Chain of rPro-hCD-FM2 (Rat 1-217/Human 237-537 FM2 (Q216K))-TEV-2Strep-6His (chain, as listed by the source Q216K): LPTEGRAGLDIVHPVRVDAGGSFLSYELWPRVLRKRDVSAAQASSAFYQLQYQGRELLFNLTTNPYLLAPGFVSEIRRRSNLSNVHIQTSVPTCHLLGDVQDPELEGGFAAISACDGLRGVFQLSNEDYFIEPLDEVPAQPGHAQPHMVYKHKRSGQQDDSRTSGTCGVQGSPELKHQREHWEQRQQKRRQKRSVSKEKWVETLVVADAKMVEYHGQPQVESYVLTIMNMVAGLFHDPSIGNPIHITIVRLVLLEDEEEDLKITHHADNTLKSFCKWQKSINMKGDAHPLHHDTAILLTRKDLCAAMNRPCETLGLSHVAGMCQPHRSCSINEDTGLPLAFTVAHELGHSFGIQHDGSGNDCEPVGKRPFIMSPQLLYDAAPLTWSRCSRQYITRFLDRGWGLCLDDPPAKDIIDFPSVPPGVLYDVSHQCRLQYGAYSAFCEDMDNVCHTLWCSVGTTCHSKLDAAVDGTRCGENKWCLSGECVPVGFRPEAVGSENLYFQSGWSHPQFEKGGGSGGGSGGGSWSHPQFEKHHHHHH
Chain of rPro-hCD (Rat 1-217/Human 237-537)-TEV-2Strep-6His (chain, as listed by the source): as the sequence (chain, as listed by the source Q216K) above, with K192Q counted along it

Question: Which results are given for “rPro-hCD (Rat 1-217/Human 237-537)-TEV-2Strep-6His”?
Answer: FRET peptide cleavage (increase of fluorescence intensity) [1]: It was surprisingly found that the same substrate could be used for the paralogs ADAMTS-7 and ADAMTS-12; FRET peptide cleavage (Relative Fluorescence Units over time) [2]: No activity was observed with COMP candidate peptides COMP1; kcat [2]: 1.22e-05 s⁻¹; FRET peptide cleavage (Relative Fluorescence Units over time) [3]: No activity was observed with COMP candidate peptides COMP1 ... or COMP2; kcat [3]: 6.33e-06 s⁻¹; FRET peptide cleavage (Relative Fluorescence Units over time) [4]: demonstrated the greatest specificity for the TSP1 S1; kcat [4]: 0.00035 s⁻¹; FRET peptide cleavage (Relative Fluorescence Units over time) [5]: also cleaved the overlapping TSP1 S2 substrate; kcat [5]: 5.33e-05 s⁻¹; FRET peptide cleavage (Relative Fluorescence Units over time) [6]: No significant activity was detected at the defined ADAMTS1 cleavage site E311⬇L312 from TSP1 S3; kcat [6]: 2e-05 s⁻¹; FRET peptide cleavage (Relative Fluorescence Units over time) [7]: No significant activity was detected at the defined ADAMTS1 cleavage site E311⬇L312 from TSP1 S3 ... or TSP1 S4; kcat [7]: 3.33e-05 s⁻¹; FRET peptide cleavage (Relative Fluorescence Units over time) [8]: Activity was observed for the S5 substrate with ADAMTS-7 human catalytic domain constructs compared to buffer alone, however the removal of the amino DEL sequence greatly reduced the signal for activity compared to the 51 substrate; kcat [8]: 3.33e-05 s⁻¹

Question: Which “FRET peptide cleavage (increase of fluorescence intensity)” value [1] does the source give for “rPro-hCD-FM2 (Rat 1-217/Human 237-537 FM2 (Q216K))-TEV-2Strep-6His” here?
Answer: Its value is “It was surprisingly found that the same substrate could be used for the paralogs ADAMTS-7 and ADAMTS-12”.

Question: What about the “FRET peptide cleavage (Relative Fluorescence Units over time)” value [2] of the same substance?
Answer: The value was “No activity was observed with COMP candidate peptides COMP1”.

Question: What about the kcat [2] of the same substance?
Answer: The kcat was 1.27e-05 s⁻¹.

Question: What about the “FRET peptide cleavage (Relative Fluorescence Units over time)” value [3] of the same substance?
Answer: The value was “No activity was observed with COMP candidate peptides COMP1 ... or COMP2”.

Question: What about the kcat [3] of the same substance?
Answer: Its kcat is 6.5e-06 s⁻¹.

Question: And the “FRET peptide cleavage (Relative Fluorescence Units over time)” value [4]?
Answer: Its value is “demonstrated the greatest specificity for the TSP1 S1”.

Question: And the kcat [4]?
Answer: Its kcat is 0.0004 s⁻¹.

Question: And the “FRET peptide cleavage (Relative Fluorescence Units over time)” value [5]?
Answer: Its value is “also cleaved the overlapping TSP1 S2 substrate”.

Question: And the kcat [5]?
Answer: Its kcat is 4.83e-05 s⁻¹.

Question: And the “FRET peptide cleavage (Relative Fluorescence Units over time)” value [6]?
Answer: The value was “No significant activity was detected at the defined ADAMTS1 cleavage site E311⬇L312 from TSP1 S3”.

Question: What about the kcat [6] of the same substance?
Answer: Its kcat is 2e-05 s⁻¹.

Question: And the “FRET peptide cleavage (Relative Fluorescence Units over time)” value [7]?
Answer: The value was “No significant activity was detected at the defined ADAMTS1 cleavage site E311⬇L312 from TSP1 S3 ... or TSP1 S4”.

Question: What about the kcat [7] of the same substance?
Answer: Its kcat is 3.5e-05 s⁻¹.

Question: And the “FRET peptide cleavage (Relative Fluorescence Units over time)” value [8]?
Answer: Its value is “Activity was observed for the S5 substrate with ADAMTS-7 human catalytic domain constructs compared to buffer alone, however the removal of the amino DEL sequence greatly reduced the signal for activity compared to the 51 substrate”.

Question: What about the kcat [8] of the same substance?
Answer: Its kcat is 3.5e-05 s⁻¹.

— patent publication US20220412975
